Measurements: EP4663199A1 (Strike Pharma AB, dated 2025)

Experiments:
[1] = target: peptide SEQ ID NO:240 (tag moiety …, no spacer, cargo peptide)
[2] = target: peptide SEQ ID NO:234 (tag moiety …, AAY spacers, cargo peptide)
[3] = target: peptide SEQ ID NO:230 (tag moiety …, GGS spacers, cargo peptide)
[4] = target: peptide SEQ ID NO:236 (tag moiety …, GGS spacers, cargo peptide)
[5] = target: peptide SEQ ID NO:235 (tag moiety […], AAA spacers, cargo peptide)
[6] = target: peptide SEQ ID NO:237 (tag moiety …, GGS spacer, cargo peptide)
[7] = target: peptide SEQ ID NO:228 (tag moiety …, AAY spacers, cargo peptide)
[8] = target: peptide SEQ ID NO:243 (tag moiety …, GGS spacer, cargo peptide)

B1: bispecific binding molecule comprising a first specific binding molecule (comprising SEQ ID NO:265 a (bispecific antibody)
VH: EVQLLESGGGLVQPGGSLRLSCAASGFTFSSYAMSWVRQAPGKGLEWVSGISGYSGSTYYADSVKGRFTISRDNSKNTLYLQMNSLRAEDTAVYYCARYYSYYGYYYFDYWGQGTLVTVSS
VL: DIQMTQSPSSLSASVGDRVTITCRASQSISSYLNWYQQKPGKAPKLLIYAASSLQSGVPSRFSGSGSGTDFTLTISSLQPEDFATYYCQQGYPYPFTFGQGTKLEIK
scFv: QVQLVQSGAEVKKPGASVKVSCKASGFNIKDFNIHWVRQAPGQGLEWIGRIDPESGDAEYVPKFQGRVTMTRDTSTSTVYMELSSLRSEDTAVYYCTTGSYDLDVEYWGQGTLVTVSSGGGGSGGGGSGGGGSGGGGSDIQMTQSPSSLSASVGDRVTITCHASQNINVWLSWYQQKPGKAPKLLIYKASTLHTGVPSRFSGSGSGTDFTLTISSLQPEDFATYYCQQGQSYPLTFGQGTKLEIK
Work on B1 yielded a Kd (peptide) of 0.012 nM, a Kd [1] of 0.0055 nM and a Kd [2] of 0.017 nM. The Kd [3] was 0.016 nM, the Kd [4] was 0.012 nM and the Kd [5] was 0.011 nM. It also gave a Kd [6] of 0.076 nM, a Kd [7] of 0.0078 nM and a Kd [8] of 0.0027 nM.
